Assay results from publication PMC11826995 (2025).

T1: HSPB6 phosphopeptide (Homo sapiens, UniProt O14558)
T1 chain: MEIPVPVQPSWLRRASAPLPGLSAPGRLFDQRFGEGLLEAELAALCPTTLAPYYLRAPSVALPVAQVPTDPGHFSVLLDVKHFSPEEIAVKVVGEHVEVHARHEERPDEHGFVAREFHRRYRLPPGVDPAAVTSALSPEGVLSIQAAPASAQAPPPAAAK

B1: 14-3-3σ (protein)
chain: MERASLIQKAKLAEQAERYEDMAAFMKGAVEKGEELSCEERNLLSVAYKNVVGGQRAAWRVLSSIEQKSNEEGSEEKGPEVREYREKVETELQGVCDTVLGLLDSHLIKEAGDAESRVFYLKMKGDYYRYLAEVATGDDKKRIIDSARSAYQEAMDISKKEMPPTNPIRLGLALNFSVFHYEIANSPEEAISLAKTTFDEAMADLHTLSEDSYKDSTLIMQLLRDNLTLWTADNAGEEGGEAPQEPQS
modifications: phosphorylated HSPB6 peptide
B2: PPARγ (protein)
chain: MGETLGDSPIDPESDSFTDTLSANISQEMTMVDTEMPFWPTNFGISSVDLSVMEDHSHSFDIKPFTTVDFSSISTPHYEDIPFTRTDPVVADYKYDLKLQEYQSAIKVEPASPPYYSEKTQLYNKPHEEPSNSLMAIECRVCGDKASGFHYGVHACEGCKGFFRRTIRLKLIYDRCDLNCRIHKKSRNKCQYCRFQKCLAVGMSHNAIRFGRMPQAEKEKLLAEISSDIDQLNPESADLRALAKHLYDSYIKSFPLTKAKARAILTGKTTDKSPFVIYDMNSLMMGEDKIKFKHITPLQEQSKEVAIRIFQGCQFRSVEAVQEITEYAKSIPGFVNLDLNDQVTLLKYGVHEIIYTMLASLMNKDGVLISEGQGFMTREFLKSLRKPFGDFMEPKFEFAVKFNALELDDSDLAIFIAVIILSGDRPGLLNVKPIEDIQDNLLQALELQLKLNHPESSQLFAKLLQKMTDLRQIVTEHVQLLQVIKKTETDMSLHPLLQEIYKDLY

How the values were obtained:
[1] = molecular target: T1, HSPB6 phosphopeptide; assay: fluorescence anisotropy
[2] = molecular target: MED1 DRIP-2 coregulator peptide (Homo sapiens, UniProt Q15648); assay: anisotropy
[3] = molecular target: EP300 coregulator peptide (Homo sapiens, UniProt Q09472); assay: fluorescence anisotropy
EP300 coregulator peptide, sequence (Q09472 2-2414): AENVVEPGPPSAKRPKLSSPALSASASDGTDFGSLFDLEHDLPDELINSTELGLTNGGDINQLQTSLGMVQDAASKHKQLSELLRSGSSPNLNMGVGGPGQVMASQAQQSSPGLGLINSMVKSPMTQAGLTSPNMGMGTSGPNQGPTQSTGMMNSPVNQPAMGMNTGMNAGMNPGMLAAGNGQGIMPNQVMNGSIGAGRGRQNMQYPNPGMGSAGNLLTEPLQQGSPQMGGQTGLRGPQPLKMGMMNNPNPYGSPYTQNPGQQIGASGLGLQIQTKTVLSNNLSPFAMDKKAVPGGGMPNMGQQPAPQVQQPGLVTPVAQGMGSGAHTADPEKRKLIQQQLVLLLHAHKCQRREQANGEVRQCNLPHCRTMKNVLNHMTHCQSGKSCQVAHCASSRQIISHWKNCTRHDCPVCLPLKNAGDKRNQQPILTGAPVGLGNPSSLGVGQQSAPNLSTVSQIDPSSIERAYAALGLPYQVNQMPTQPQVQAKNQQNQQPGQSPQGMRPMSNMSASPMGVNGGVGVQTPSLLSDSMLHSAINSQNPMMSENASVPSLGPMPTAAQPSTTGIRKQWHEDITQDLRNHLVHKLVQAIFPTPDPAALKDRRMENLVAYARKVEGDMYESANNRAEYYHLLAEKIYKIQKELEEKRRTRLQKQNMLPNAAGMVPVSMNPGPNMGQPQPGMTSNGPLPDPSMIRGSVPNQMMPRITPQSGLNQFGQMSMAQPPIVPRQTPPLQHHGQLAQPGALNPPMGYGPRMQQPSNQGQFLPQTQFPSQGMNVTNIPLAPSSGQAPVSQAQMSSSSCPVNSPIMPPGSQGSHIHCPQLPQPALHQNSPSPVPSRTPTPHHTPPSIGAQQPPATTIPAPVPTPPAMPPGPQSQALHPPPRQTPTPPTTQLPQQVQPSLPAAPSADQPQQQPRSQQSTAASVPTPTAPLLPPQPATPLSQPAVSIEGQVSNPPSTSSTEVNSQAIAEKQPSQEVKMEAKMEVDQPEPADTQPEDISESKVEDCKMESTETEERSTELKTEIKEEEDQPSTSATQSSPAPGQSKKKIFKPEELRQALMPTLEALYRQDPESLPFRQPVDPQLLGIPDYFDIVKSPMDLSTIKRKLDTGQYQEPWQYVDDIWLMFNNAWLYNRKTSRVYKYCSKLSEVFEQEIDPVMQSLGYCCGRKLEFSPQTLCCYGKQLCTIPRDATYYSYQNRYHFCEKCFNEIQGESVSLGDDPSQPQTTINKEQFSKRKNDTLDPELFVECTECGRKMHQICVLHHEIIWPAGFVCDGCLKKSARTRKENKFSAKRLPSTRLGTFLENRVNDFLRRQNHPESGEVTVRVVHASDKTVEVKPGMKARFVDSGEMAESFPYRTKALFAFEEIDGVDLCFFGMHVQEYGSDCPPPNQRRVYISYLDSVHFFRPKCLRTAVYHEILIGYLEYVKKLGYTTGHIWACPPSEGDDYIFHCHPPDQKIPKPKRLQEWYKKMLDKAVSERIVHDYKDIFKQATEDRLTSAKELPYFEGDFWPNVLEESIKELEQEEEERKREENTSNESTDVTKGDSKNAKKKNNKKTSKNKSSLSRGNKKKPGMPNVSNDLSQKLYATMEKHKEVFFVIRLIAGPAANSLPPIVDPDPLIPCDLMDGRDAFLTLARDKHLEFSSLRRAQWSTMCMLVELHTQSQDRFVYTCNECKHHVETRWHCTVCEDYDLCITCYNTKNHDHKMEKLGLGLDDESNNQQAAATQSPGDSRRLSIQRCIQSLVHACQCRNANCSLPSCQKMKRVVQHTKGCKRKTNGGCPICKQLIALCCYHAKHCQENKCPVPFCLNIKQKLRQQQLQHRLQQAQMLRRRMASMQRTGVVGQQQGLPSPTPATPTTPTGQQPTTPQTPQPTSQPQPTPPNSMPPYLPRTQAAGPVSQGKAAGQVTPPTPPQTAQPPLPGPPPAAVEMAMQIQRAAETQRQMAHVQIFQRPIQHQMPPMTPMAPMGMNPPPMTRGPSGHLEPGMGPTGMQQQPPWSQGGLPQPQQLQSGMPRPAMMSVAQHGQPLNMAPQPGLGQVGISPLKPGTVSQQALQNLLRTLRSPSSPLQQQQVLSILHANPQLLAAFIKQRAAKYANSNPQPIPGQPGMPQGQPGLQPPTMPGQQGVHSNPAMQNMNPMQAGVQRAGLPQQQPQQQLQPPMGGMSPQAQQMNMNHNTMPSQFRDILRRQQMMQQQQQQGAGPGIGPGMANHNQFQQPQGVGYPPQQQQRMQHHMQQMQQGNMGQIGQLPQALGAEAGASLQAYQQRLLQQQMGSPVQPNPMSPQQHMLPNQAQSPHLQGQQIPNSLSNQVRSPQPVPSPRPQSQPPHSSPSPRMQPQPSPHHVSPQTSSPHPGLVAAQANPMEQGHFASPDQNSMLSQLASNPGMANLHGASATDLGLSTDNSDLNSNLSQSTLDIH

MED1 DRIP-2 coregulator peptide, sequence (Q15648 whole entry): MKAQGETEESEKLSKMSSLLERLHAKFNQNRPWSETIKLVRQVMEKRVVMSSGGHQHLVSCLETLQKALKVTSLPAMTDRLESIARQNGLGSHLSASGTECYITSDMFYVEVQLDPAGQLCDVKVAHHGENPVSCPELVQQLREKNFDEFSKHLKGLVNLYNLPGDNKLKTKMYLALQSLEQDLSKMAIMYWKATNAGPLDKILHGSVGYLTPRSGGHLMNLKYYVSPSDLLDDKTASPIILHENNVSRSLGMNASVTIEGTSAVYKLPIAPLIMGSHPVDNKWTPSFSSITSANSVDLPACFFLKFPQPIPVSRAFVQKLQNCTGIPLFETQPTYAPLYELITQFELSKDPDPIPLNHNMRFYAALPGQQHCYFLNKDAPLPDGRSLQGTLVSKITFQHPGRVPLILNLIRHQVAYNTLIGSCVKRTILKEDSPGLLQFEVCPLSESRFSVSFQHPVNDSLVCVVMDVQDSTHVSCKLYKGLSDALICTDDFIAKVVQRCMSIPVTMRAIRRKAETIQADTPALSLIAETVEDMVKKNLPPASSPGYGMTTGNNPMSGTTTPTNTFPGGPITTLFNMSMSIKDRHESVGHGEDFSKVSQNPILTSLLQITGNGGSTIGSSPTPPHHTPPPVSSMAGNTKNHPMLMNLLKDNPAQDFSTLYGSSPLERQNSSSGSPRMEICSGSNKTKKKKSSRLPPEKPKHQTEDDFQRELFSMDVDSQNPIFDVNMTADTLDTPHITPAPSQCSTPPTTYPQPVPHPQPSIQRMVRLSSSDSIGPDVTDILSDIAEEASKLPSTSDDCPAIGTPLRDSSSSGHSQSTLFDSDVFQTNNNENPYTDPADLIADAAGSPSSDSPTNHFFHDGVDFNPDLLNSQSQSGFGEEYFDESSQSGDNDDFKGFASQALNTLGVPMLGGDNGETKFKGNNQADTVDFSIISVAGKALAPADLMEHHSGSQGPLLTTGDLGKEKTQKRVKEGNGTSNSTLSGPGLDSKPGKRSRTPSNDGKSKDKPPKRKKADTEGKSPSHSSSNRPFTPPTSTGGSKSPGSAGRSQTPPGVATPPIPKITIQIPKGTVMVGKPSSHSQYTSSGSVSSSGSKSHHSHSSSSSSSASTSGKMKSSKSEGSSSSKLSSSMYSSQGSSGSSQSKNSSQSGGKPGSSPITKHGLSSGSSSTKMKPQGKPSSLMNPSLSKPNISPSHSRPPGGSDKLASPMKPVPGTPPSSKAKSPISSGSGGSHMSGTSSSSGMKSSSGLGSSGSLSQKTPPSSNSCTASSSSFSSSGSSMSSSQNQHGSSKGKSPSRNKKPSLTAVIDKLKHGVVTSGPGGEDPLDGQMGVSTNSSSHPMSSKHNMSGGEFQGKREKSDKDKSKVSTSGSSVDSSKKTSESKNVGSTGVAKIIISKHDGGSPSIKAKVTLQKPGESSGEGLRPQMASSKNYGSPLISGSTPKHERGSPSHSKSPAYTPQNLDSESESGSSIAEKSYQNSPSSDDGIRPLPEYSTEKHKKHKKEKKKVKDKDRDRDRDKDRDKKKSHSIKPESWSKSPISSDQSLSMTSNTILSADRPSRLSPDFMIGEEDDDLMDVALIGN

Binder	Kd [1] [nM]	Kd [2] [nM]	Kd [3] [nM]
B1	990		
B2		647	> 10000
